The values below come from article PMC9726891, “SESAME-catalyzed H3T11 phosphorylation inhibits Dot1-catalyzed H3K79me3 to regulate autophagy and telomere silencing” (Nature Communications, 2022).

Where no end group is shown, it is not given here.

For assay [1], the target named is Dot1 (UniProt Q04089). The assay is described as follows: biotinylated peptide pull-down, immunoblot. As to conditions: reference: unmodified H3 (1-23) peptide; sites T11. (Immunoblotting shows a protein as a band on a membrane.)
For a further assay, the target named is Set1 (UniProt P38827). The assay is described as follows: biotinylated peptide pull-down, immunoblot. As to conditions: reference: unmodified H3 (1-23) peptide; sites T11.
The next assay deals with Set2 (UniProt P46995). The assay is described as follows: biotinylated peptide pull-down, immunoblot. As to conditions: reference: unmodified H3 (1-23) peptide; sites T11.
Assay [2] has as its target Dot1 (UniProt Q04089). The assay is described as follows: Dot1-FLAG IP, anti-H3/H4 blot of nucleosomes. As to conditions: reference: wild type H3; sites T11.
The target of assay [3] is Dot1 (UniProt Q04089). The assay is described as follows: H3-FLAG nucleosome IP, Dot1 blot. The following applies: reference: WT H3-FLAG; sites T11.
For assay [4], the target named is T1, purified endogenous SIR complex (Sir2-FLAG) (S. cerevisiae (endogenous in yeast), UniProt P06700 1-562; P06701 1-978; P11978 1-1358).
T1 construct: NAD-dependent histone deacetylase Sir2, S. cerevisiae; Sir3, S. cerevisiae; named as a subunit of the SIR complex in the introduction; Sir4, S. cerevisiae; also called silent information regulator complex; not shown: FLAG, C-terminal, kept; copies: + +
The assay is described as follows: pull-down; 1.0 µg biotinylated histone peptide incubated with 1 µg purified SIR complex (Sir2-FLAG) in 50 mM Tris-HCl pH 7.5, 250 mM NaCl, 0.1% NP-40, overnight at 4 °C; Streptavidin beads; immunoblot. The following applies: both partners purified.

T1 sequence (P06700 whole entry, chain 1 of 3): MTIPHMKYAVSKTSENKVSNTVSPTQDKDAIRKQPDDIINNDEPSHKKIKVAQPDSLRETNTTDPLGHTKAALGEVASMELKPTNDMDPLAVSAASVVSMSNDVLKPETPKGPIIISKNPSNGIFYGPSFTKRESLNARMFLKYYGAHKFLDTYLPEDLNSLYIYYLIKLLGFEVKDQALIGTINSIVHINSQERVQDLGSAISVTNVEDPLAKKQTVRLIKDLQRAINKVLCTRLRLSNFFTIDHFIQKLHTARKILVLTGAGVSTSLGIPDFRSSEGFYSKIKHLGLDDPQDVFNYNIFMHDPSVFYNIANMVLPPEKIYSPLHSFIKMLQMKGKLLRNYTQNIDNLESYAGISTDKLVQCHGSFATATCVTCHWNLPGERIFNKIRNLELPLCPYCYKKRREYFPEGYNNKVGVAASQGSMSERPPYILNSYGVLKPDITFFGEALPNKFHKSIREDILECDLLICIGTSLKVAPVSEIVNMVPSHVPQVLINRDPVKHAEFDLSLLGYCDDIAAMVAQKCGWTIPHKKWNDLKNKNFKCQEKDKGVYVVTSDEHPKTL
T1 sequence (P06701 whole entry, chain 2 of 3): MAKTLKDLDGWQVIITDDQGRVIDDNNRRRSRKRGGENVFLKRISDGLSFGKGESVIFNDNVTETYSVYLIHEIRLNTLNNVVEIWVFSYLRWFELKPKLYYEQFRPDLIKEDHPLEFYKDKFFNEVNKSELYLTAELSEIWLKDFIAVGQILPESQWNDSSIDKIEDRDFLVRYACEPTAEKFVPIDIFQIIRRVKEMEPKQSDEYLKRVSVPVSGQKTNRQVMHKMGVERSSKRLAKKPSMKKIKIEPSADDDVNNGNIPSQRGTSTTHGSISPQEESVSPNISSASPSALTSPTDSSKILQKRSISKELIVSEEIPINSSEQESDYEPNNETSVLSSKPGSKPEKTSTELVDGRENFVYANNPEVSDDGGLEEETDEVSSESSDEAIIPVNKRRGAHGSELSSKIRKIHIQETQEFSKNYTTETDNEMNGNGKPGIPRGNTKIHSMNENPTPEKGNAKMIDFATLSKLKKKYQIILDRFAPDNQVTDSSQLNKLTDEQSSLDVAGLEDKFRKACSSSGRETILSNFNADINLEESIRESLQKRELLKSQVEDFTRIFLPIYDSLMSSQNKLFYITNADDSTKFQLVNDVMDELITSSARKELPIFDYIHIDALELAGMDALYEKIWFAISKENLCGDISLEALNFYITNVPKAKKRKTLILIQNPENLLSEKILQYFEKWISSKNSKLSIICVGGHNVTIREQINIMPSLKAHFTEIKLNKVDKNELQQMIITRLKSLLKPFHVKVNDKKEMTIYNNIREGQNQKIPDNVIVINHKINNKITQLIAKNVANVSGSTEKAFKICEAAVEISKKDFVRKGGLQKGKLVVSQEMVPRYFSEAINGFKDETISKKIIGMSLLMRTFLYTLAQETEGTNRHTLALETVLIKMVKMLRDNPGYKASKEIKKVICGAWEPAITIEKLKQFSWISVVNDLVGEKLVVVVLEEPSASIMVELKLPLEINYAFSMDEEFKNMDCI
T1 sequence (P11978 whole entry, chain 3 of 3): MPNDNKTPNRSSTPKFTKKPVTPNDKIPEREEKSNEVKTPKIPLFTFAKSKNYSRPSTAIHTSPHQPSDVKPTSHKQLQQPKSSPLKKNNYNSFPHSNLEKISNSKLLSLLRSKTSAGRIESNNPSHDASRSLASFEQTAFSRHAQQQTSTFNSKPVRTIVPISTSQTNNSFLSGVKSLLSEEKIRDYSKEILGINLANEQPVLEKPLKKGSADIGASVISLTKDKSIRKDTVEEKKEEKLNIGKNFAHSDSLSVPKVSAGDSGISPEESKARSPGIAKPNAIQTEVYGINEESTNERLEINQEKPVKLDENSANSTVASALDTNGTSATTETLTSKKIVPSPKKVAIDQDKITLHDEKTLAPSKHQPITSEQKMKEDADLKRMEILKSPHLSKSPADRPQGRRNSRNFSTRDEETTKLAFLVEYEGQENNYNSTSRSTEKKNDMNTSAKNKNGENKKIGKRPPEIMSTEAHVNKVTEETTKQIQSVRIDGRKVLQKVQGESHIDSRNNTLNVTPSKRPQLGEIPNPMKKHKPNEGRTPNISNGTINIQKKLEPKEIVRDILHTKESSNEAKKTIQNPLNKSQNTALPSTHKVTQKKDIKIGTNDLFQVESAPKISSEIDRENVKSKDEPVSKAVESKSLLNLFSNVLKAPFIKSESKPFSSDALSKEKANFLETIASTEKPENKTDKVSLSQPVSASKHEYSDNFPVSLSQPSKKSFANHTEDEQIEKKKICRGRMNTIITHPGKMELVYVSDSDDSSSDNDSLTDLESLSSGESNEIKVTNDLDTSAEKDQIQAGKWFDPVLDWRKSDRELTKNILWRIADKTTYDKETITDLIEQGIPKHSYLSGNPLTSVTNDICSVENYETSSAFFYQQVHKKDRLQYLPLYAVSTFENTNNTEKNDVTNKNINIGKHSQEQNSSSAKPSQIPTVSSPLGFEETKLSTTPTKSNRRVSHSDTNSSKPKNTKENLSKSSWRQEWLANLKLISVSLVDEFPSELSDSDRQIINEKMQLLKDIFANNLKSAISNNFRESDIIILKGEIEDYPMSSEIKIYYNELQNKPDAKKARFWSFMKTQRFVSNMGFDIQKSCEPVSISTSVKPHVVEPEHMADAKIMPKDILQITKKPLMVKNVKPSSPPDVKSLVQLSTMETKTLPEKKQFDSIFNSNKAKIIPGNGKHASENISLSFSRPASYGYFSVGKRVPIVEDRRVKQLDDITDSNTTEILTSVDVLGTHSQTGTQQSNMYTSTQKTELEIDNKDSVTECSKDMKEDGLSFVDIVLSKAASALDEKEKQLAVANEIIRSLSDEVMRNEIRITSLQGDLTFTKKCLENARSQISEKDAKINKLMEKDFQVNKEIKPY

As for “histone H3 1-23 (from UniProt P61830) H3pT11 (1-23) peptide”, the “binding against the reference” value was “weaker” with Dot1 [1], “same” in the assay with Set1 and “same” with Set2.
On to histone H3 (from UniProt P61830) H3T11A, for which, in the assay with Dot1 [2], the “binding against the reference” value is listed as “stronger”.
With “histone H3 (from UniProt P61830) H3T11A-FLAG”, in the assay with Dot1 [3], the “binding against the reference” value is “stronger”.

B1: Unmodified H3 (72–85) peptide (peptide)
peptide: REIAQDFKTDLRFQ
modifications: also: biotin (position not given here)
notes: histone H3 residues 72-85; also called unmodified H3 peptide; source: synthetic peptide (biotinylated histone peptide)
Consider B1, for which, in assay [4], the binding result was “binds”.
